The series addresses T1, OhrR-C (chromosomal OhrR) (Acinetobacter baumannii ATCC 19606) (UniProt A0A077GRS4).
T1 sequence: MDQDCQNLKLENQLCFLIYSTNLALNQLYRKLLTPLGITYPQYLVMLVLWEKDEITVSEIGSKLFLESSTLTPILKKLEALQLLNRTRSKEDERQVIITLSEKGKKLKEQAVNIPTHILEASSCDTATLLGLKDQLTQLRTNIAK
Put plainly: EMSA. The note with it: 20 mM Tris-HCl pH 7.5, 100 mM MgCl2, 150 mM KCl, 50 mM EDTA, 12.5% glycerol, 250 uM DTT, 830 ng/mL poly(dI-dC), 250 ng/mL BSA, 50 nM DNA; room temperature …. On the technique in general: A gel shift assay detects complexes by their altered migration in electrophoresis.

With “TGTATATTACCTTGCTTAATATTATATTGTGTAAAATATAATTGCACACAATTAAATATAGGTCAATTATTTTCCTTTGTTTTTTATTTAACATAATGGGCGTTATATGAAATTCAAAAAAATGATACTATTTTTGTGATAATTAAATAAATTTTAGGTGAACATAAGTTAAATAGAGCTTATATCGGCC (double strand) [Pohr-p]”, the binding entry is given as “binds more weakly”.

Source of the values: PMC8002998.
